# Article PMC9696579 (Nature structural & molecular biology, 2022)
# B1: SMO pCT WRR mutant: SMO pCT harboring the WRR mutation, GST-tagged for SPR (protein)
# chain: KRIKKSKMIAKAFSKRRELLQNPGQELSFSMHTVSHDGPVAGLAFDLNEPSADVSSAAAQHVTKMVAAAGAILPQDVSVTPVATPVPPEEQAN
# modifications: left off: GST, end not stated, kept
# Molecular target: mouse PKA-Cα (Mus musculus, UniProt P05132)
# Experiment: Surface plasmon resonance
# Details: SPR; mouse PKA-Cα; ATP and MgCl2 present
molecule,measurement,value
B1,binding to PKA-Cα,no PKA-C binding was observed
